Data taken from PMC2949298.

Target: 21c Fab (human)
Experiment: SPR

Kd: 92 nM
Substance: CAP210_(V1V2) (core CAP210 gp120 containing the V1V2 loop) with sCD4 (complex)
